Data as given in the supplement of paper PMC12764529.
± gives the half width of the 95% confidence interval.

Columns and labels:
[1] = folding stability dG unfold from trypsin proteolysis; higher = more stable
Method in brief: (§1)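 Unfolding free energy was derived, per protease or combined, by relating Bayesian-fitted K50 values from sequencing counts to a sequence-predicted unfolded-state K50 and a shared folded-state K50. The underlying digests exposed cysteine-free mini-proteins under 80 residues, in a PA-tagged cDNA display construct, to trypsin and chymotrypsin at 11 threefold-diluted concentrations and to a no-protease condition. A filter kept only designs with AlphaFold2 dimer inter-PAE above 15.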

[2] = folding stability dG unfold from chymotrypsin proteolysis; higher = more stable
Method in brief: as §1

[3] = folding stability dG unfold (combined trypsin and chymotrypsin); higher = more stable
Method in brief: as §1

Sequence | folding stability dG unfold [1] | folding stability dG unfold [2] | folding stability dG unfold [3]
SAGGDKNAKPIKPITISFTLEDGSKKTITATFYKDAVIVEITYINPKTGKPFTKTFVFKKKGVKLLLSAGGS [r16_419_TrMRF] | 2.43 ± 0.096 kcal/mol | 3.19 ± 0.094 kcal/mol | 3.02 ± 0.21 kcal/mol
SAGGSAGGSAGMTIEELKAKGYKVEVVKLPDSPEEVVVVTYPVPPGGIEKSVIPLSEVKLSAGGSAGGSAGG [r17_311_JUSTAS] | -0.00127 ± 0.025 kcal/mol | 0.601 ± 0.048 kcal/mol | 0.375 ± 0.052 kcal/mol
SAGGSAGGSMKYLVTFPEGGPVPLPDGTSVALAPGAVLELETEEEAEALKALNPGRPVVITPVSAGGSAGGS [r12_987_JUSTAS] | 1.51 ± 0.037 kcal/mol | 1.35 ± 0.03 kcal/mol | 1.47 ± 0.05 kcal/mol
SAGGSAGGSAGGSMIVERKPAPGGPRVEITIEIPDPTSDVPIIKKLVAEVLEDGSIVKASAGGSAGGSAGGS [r4_448_JUSTAS] | -0.193 ± 0.16 kcal/mol | -0.525 ± 0.27 kcal/mol | -0.205 ± 0.21 kcal/mol
SAGGSAGGSAMKLKVPTKDGKVYEVTVVDYDPENEKVVVKNPDTDELYTFSLEDFKKILEANSAGGSAGGSA [r18_161_TrMRF] | 2.72 ± 0.17 kcal/mol | 3.55 ± 0.08 kcal/mol | 3.36 ± 0.12 kcal/mol
SAGGSAGGSAGKPVTLTDANGTPYSVSQVTTDPNSATVTATFTSPTSSTTHTATYPVTPASAGGSAGGSAGG [r11_290_JUSTAS] | 1.03 ± 0.046 kcal/mol | 0.728 ± 0.13 kcal/mol | 0.791 ± 0.14 kcal/mol
SADGKVKVVVNLRITVTPLSPDGTPQPLPAASIPLVFEGDANDPEAVEQAVRDVLDALAPLFPDAEIVVDSA [r9_1112_TrMRF] | 1.23 ± 0.082 kcal/mol | 1.98 ± 0.046 kcal/mol | 1.73 ± 0.13 kcal/mol
SAGGSAGGSAGGSGLSFEIVEEREELLPDGRPRRRIFATLPGGRRLVIDDDGRITIDPDSAGGSAGGSAGGS [r4_111_TrMRF] | 0.45 ± 0.33 kcal/mol | 0.968 ± 0.15 kcal/mol | 0.897 ± 0.25 kcal/mol
SAVITYPIPDDKPTLILEPLPGSESLLILSTKREKIPNGTYKVEALVVRYEPALGASVEEKVELIEPIGSAG [r14_591_JUSTAS] | -0.819 ± 0.46 kcal/mol | -0.216 ± 0.56 kcal/mol | -0.239 ± 0.22 kcal/mol
SAGGETRTFMFPFKPGMPLEEIIEELIDVLQKKGKDYPIEFKPIEPDPNGYMLFMATVTNNKITIFWSAGGS [r8_7_TrROS] | 2.22 ± 0.05 kcal/mol | 3.03 ± 0.083 kcal/mol | 2.83 ± 0.17 kcal/mol
SAGGSAGGSAATKQITYTPPGSNRTYSFTATLTEEDPVTGRKLLELTLPDGTPITLPEGELGSAGGSAGGSA [r18_334_JUSTAS] | 0.191 ± 0.061 kcal/mol | 0.0349 ± 0.08 kcal/mol | 0.163 ± 0.067 kcal/mol
SASMEAALAKVEEITAEPSWELVGVSPEGVFTIRNPETGTEIVIEIKVTSDGKGYKVTIPSKTVVPAPESAG [r14_20_JUSTAS] | 1.45 ± 0.096 kcal/mol | 1.3 ± 0.13 kcal/mol | 1.38 ± 0.12 kcal/mol
SAGSWIDKLPPSFTSSSPLAKRPDGTRVYAYEYTTESSPSILLVEFDASGRLRKIEKLDPETAAKAIAASAG [r5_73_JUSTAS] | 1.19 ± 0.031 kcal/mol | 1.14 ± 0.071 kcal/mol | 1.22 ± 0.11 kcal/mol
SAGGSKKVILIAKIPNEDKYLVLIASDSPELVKEAAKKAKKPGFYVLGEMTVEEAVKKLGLPPELFKSAGGS [r16_438_TrMRF] | 1.04 ± 0.03 kcal/mol | 2.5 ± 0.051 kcal/mol | 2.23 ± 0.19 kcal/mol
SAGGMVLVEPSPDAVVRVIEREGDLARVTVYDPRSGARTVELVPIAPTGKGGVRLETLEVRVLPDAEASAGG [r13_556_JUSTAS] | -0.136 ± 0.035 kcal/mol | -0.0954 ± 0.048 kcal/mol | -0.0934 ± 0.057 kcal/mol
SAGGSAGGSVEDVVKKENVEKAEVKPEPNPPVTLTKITSKNPNSNTTLTGTLVVVDPKNGLLLSAGGSAGGS [r12_133_JUSTAS] | -0.344 ± 0.12 kcal/mol | 0.157 ± 0.21 kcal/mol | 0.0723 ± 0.11 kcal/mol
SAGGSAGGSAGGDDNDPGKIKIEVEVETYPIPNPNGEPFYITTHTIKIPNLDIEFMMIMPSAGGSAGGSAGG [r7_945_TrROS] | 2.01 ± 0.1 kcal/mol | 1.45 ± 0.039 kcal/mol | 1.7 ± 0.11 kcal/mol
SAGGSAGGSAGPKILSIEEYDPENGYITVIAELTGKPVRMKVKFIPGKKEIKIIEIEPLDSAGGSAGGSAGG [r11_1066_TrMRF] | 1.81 ± 0.07 kcal/mol | 2.49 ± 0.036 kcal/mol | 2.36 ± 0.1 kcal/mol
SAGGSAGGSAGGSITITWNPESGTVKIKPPNNKKEIEIPAENMTPSQIIDQAKDNGVEVSAGGSAGGSAGGS [r4_49_TrROS] | -0.0527 ± 0.12 kcal/mol | 1.39 ± 0.1 kcal/mol | 0.935 ± 0.17 kcal/mol
SAGGPDNIRIDLKIEPTGDSVKITFPIYNPNGSPIKVEMEYQRVGGKKFFRMKIEFGGRPIELWIPISAGGS [r16_476_TrROS] | 3.4 ± 0.13 kcal/mol | 4.93 ± 0.094 kcal/mol | 4.7 ± 0.22 kcal/mol
SAGGSAGGSAGPKPPPVYRLRIVNPDGEVYEFEVPADMSPEEIAKRLGLPPGARVELEKVSAGGSAGGSAGG [r11_340_TrROS_Hall] | 2.59 ± 0.17 kcal/mol | 3.35 ± 0.081 kcal/mol | 3.28 ± 0.28 kcal/mol

Sequence | folding stability dG unfold [1] | folding stability dG unfold [2] | folding stability dG unfold [3]
SAGGSAGGEFTVTVTIEKDEEKGFIRIPISVSLPSSAFVPKTVEFLEFAKTLKENLPELEVDASSAGGSAGG [r6_102_TrMRF] | 0.609 ± 0.018 kcal/mol | 0.65 ± 0.075 kcal/mol | 0.679 ± 0.038 kcal/mol
SAGGSAGGSGMAVSVSVTPVRLPDGSVRLVISFSSGSTVVLDLPESEWTPEQVEALVAELVSASAGGSAGGS [r12_218_JUSTAS] | 3.82 ± 0.077 kcal/mol | 3.9 ± 0.048 kcal/mol | 3.89 ± 0.058 kcal/mol
SAGGSAGGSPVVVIEVPAEDLSPEDIKALLAAAPDENAVIVITNPDGEKRTLVFTPDGRIEPLSAGGSAGGS [r12_1054_TrROS_Hall] | 0.681 ± 0.024 kcal/mol | 0.451 ± 0.1 kcal/mol | 0.593 ± 0.042 kcal/mol
KKVKIEIEVEKVEDGYYVVRIKVKFEETEETIELELVFPKSLEEVLEKIKELLPEGQITEVEIEVYPLPEPS [r1_399_TrROS_Hall] | 3.89 ± 0.23 kcal/mol | 3.13 ± 0.25 kcal/mol | 3.72 ± 0.67 kcal/mol
SAKTKTIEIEVKIKLIEIDPKTGKKTEKEFTAKATITYDEENNVVTIKIEFKDNGKTITITLPPGAKIKSAG [r14_587_TrROS_Hall] | 2.1 ± 0.098 kcal/mol | 2.25 ± 0.14 kcal/mol | 2.26 ± 0.27 kcal/mol
SAGGSAGGSAGGKITFAPKTTLLLTATIPVTVYSLHPDGTLTTETRSATITFTIPPELLSAGGSAGGSAGGS [r10_383_TrMRF] | 2.4 ± 0.086 kcal/mol | 4.1 ± 0.074 kcal/mol | 3.64 ± 0.12 kcal/mol
SAGGEVELKIKIEIRVELNEDGELKVEIKIEIELRPKPEPELTEEERLAEELRKKYPGLSKEELEALLSAGG [r13_136_TrROS_Hall] | 2.87 ± 0.32 kcal/mol | 1.63 ± 0.13 kcal/mol | 2.32 ± 0.27 kcal/mol
SPPVSTTTPVPDPENGVVVATVTLTTDPTTGEKTLILKSPEGKTKTVTLSPDETFPVEGLPKGLTATSSVSA [r9_1150_JUSTAS] | -0.942 ± 0.47 kcal/mol | 0.437 ± 0.082 kcal/mol | 0.0862 ± 0.14 kcal/mol
SAGNVVETEEKPVESPLPRKATLTTLTSPTPGVTFRVFTSPENVTTVEVETDGRTETLEPAEAEALLASSAG [r5_157_JUSTAS] | -1.35 ± 0.58 kcal/mol | -0.995 ± 0.3 kcal/mol | < -1 kcal/mol
SAGGMTTTTVEVKRLPNGSIERTLKTTVPLPNGDLVVTTTKSIVYREDGKVVKEEVLETETTLLPATSAGGS [r8_36_JUSTAS] | 2.58 ± 0.082 kcal/mol | 2.92 ± 0.077 kcal/mol | 2.77 ± 0.074 kcal/mol
SEFPESVPVDWVERELTFSSSSKEELEKKIKELLKNIEIEVSYDPKTNKYTLKIKFPSKEKAEKVEELLSSA [r9_764_JUSTAS] | 2.22 ± 0.067 kcal/mol | 3.268 ± 0.026 kcal/mol | 2.96 ± 0.14 kcal/mol
SAGGSAGGKIKPGEKVKVKVKIKNKNGEVFEATATVVDGKIFIEVDGKIYEISADDIEEIEVEPSAGGSAGG [r6_132_TrROS_Hall] | 1.47 ± 0.042 kcal/mol | 2.92 ± 0.099 kcal/mol | 2.37 ± 0.22 kcal/mol
SAGGSAGGSKKKITRIVITDFDPETGKVTVRIRNENGEEETIEVETLEELKELFPDVEVEVIPSAGGSAGGS [r12_403_TrROS_Hall] | 2.45 ± 0.049 kcal/mol | 2.09 ± 0.044 kcal/mol | 2.24 ± 0.059 kcal/mol
SASPALELAKEIAEKIEPLFPDISPVEVTVTPRGSTALGTIKFKRPDGKELVAKMIVSAGGDPVEIILLSAG [r14_719_JUSTAS] | 1.56 ± 0.14 kcal/mol | 1.26 ± 0.25 kcal/mol | 1.51 ± 0.21 kcal/mol
SAGGSNPNMFRLKVEIEPYEYRDPDGQPKARVWKIDIEMEPGMPPNMAKNIASNFQNRGLPVKIEPSAGGSA [r2_456_TrROS] | 0.102 ± 0.18 kcal/mol | 0.689 ± 0.12 kcal/mol | 0.578 ± 0.16 kcal/mol
SAGGSAKKKKKKKKKKKKKKEKKEVVIVIKAKSKEEAEKAVKKLLEELQKKYNIPLPKNVKVIILPSAGGSA [r15_496_TrROS_Hall] | 3.33 ± 0.11 kcal/mol | 4.34 ± 0.24 kcal/mol | 3.65 ± 0.37 kcal/mol
SAGGSAGGSAGGEKEPVTLLVVRVDGKLVVVSEEELKKLAEELNVEVEVRLVTVTKEELKSAGGSAGGSAGG [r7_185_TrROS_Hall] | 0.567 ± 0.038 kcal/mol | 1.94 ± 0.033 kcal/mol | 1.57 ± 0.085 kcal/mol
SATIEIPIKVNDRKFRISIERMPDGWIKIQIRDPNMPKDAVKDALREILGPGWKIDTDPETNTIYIPFKSAG [r14_370_TrROS] | 2.41 ± 0.061 kcal/mol | 2.77 ± 0.027 kcal/mol | 2.67 ± 0.059 kcal/mol
SAGGSAGGSAGPYVVTIELPSGERIEVAVPAERLEEHVEELKPLVEPARITVRPVAPDALSAGGSAGGSAGG [r11_103_TrMRF] | 0.143 ± 0.02 kcal/mol | 0.477 ± 0.018 kcal/mol | 0.376 ± 0.053 kcal/mol
SAGMTAEELAEELAKELEVEVTLENGEKRRVRVEVKVERLPDGTLLLTAKVENEETGETFEIKIEIKLESAG [r5_397_TrROS_Hall] | 2.9 ± 0.13 kcal/mol | 4.3 ± 0.37 kcal/mol | 3.67 ± 0.33 kcal/mol
SAGGSAMSVDPVGERTTITILYKDKPVTVPTGPLEEVEREVAAVLEEIEAKTGRKISPDTEVSFVPSAGGSA [r15_496_JUSTAS] | -0.283 ± 0.3 kcal/mol | 0.595 ± 0.17 kcal/mol | 0.318 ± 0.16 kcal/mol
